± gives the uncertainty stated by the source.
Experiment: self-splicing fitness, log relative to wild type (ln ratio); higher = more splicing; Tetrahymena group I intron in knt gene, E. coli kanamycin selection, DiMSum; sequences stand for … in CUCUCU…GGAGGGAAAAGUUAUCAGGCAUGCACCUGGUAGCUAGUCUUUAAACCAAUAGAUUGCAUCGGUUUAAAAGGCAAGACCGUCAAAUUGCGGGAAAGGGGUCAACAGCCGUUCAGUACCAAGUCUCAGGGGAAACUUUGAGAUGGCCUUGCAAAGGGUAUGGUAAUAAGCUGACGGACAUGGUCCUAACCACGCAGCCAAGUCCUAAGUCAACAGAUCUUCUGUUGAUAUGGAUGCAGUUCACAGACUAAAUGUCGGUCGGGGAAGAUGUAUUCUUCUCAUAAGAUAUAGUCGGACCUCUCCUUAAUGGGAGCUAGCGGAUGAAGUGAUGCAACACUGGAGCCGCUGGGAACUAAUUUGUAUGCGAAAGUAUAUUGAUUAGUUUUGGAGUACUCGUGGUCG
Outline: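 Six replicate transformations of E. coli BL21(DE3) with a pET-22b(+) library were grown overnight at 37°C or 30°C. The library randomised all eight P1ex-region intron nucleotides, the intron lying in the knt kanamycin-resistance gene, and plates were LB agar with or without 25 μg/mL kanamycin plus 100 μg/mL carbenicillin, 50 μM IPTG and 0.2% rhamnose. Pooled colonies were amplicon-sequenced on an Illumina HiSeq 2500, and fitness is the DiMSum error-weighted combination of wild-type-normalised replicate fold changes, kanamycin versus none.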

Sequence | self-splicing fitness (ln) (30 °C) | self-splicing fitness (ln) (37 °C)
UAGCAGCAAUAUUACGUUCU | -1.45 ± 0.1 | -0.606 ± 0.12
UAGCAGCAAUAUUACGUUGG | -2.36 ± 0.089 | -2.22 ± 0.12
UAGGAGCAAUAUUACGAAUG | -1.64 ± 0.4 | -0.141 ± 0.49
UAGGAGCAAUAUUACGACAG | -2.19 ± 0.33 | –
UAGGAGCAAUAUUACGACCG | 0.0998 ± 0.18 | -0.0128 ± 0.23
UAGGAGCAAUAUUACGAGCA | -2.38 ± 0.17 | -1.58 ± 0.15
UAGGAGCAAUAUUACGAUCA | -1.02 ± 0.2 | -0.542 ± 0.28
UAGGAGCAAUAUUACGCAAG | – | -0.879 ± 0.22
UAGGAGCAAUAUUACGCAGU | – | -1.96 ± 0.28
UAGGAGCAAUAUUACGCGCG | -0.62 ± 0.11 | -1.29 ± 0.14
UAGGAGCAAUAUUACGGAAC | – | -0.574 ± 0.4
UAGGAGCAAUAUUACGGACA | -3.74 ± 0.4 | -0.442 ± 0.18
UAGGAGCAAUAUUACGGCUC | -2.64 ± 0.24 | –
UAGGAGCAAUAUUACGGGCG | -2.73 ± 0.19 | -2.58 ± 0.23
UAGGAGCAAUAUUACGGGCU | -3.12 ± 0.48 | -1.64 ± 0.4
UAGGAGCAAUAUUACGGUAG | -3.52 ± 0.17 | -1.56 ± 0.13
UAGGAGCAAUAUUACGUACC | -2.66 ± 0.32 | -2.69 ± 0.43
UAGGAGCAAUAUUACGUAUC | -1.71 ± 0.2 | –
UAGGAGCAAUAUUACGUCGU | -1.72 ± 0.28 | -1.86 ± 0.35
UAGGAGCAAUAUUACGUGCA | -1.88 ± 0.17 | -1.41 ± 0.19
UAGGAGCAAUAUUACGUUUG | -3.19 ± 0.2 | -1.25 ± 0.22

Sequence | self-splicing fitness (ln) (30 °C) | self-splicing fitness (ln) (37 °C)
UAGUAGCAAUAUUACGACAU | -2.049 ± 0.018 | -0.934 ± 0.034
UAGUAGCAAUAUUACGAGCU | – | -0.383 ± 0.21
UAGUAGCAAUAUUACGAGGA | – | -1.81 ± 0.46
UAGUAGCAAUAUUACGAGUU | -3.96 ± 0.28 | -2.75 ± 0.23
UAGUAGCAAUAUUACGCAUG | -1.58 ± 0.092 | -0.443 ± 0.095
UAGUAGCAAUAUUACGCCAA | -3.28 ± 0.29 | -2.02 ± 0.24
UAGUAGCAAUAUUACGCGAA | – | -2.45 ± 0.41
UAGUAGCAAUAUUACGCUAG | -1.09 ± 0.23 | 0.812 ± 0.24
UAGUAGCAAUAUUACGGAAG | – | -1.83 ± 0.23
UAGUAGCAAUAUUACGGAUC | -2.87 ± 0.11 | -0.854 ± 0.079
UAGUAGCAAUAUUACGGGAC | -4.2 ± 0.42 | -2.27 ± 0.43
UAGUAGCAAUAUUACGGGAU | -3.3 ± 0.23 | -1.97 ± 0.18
UAGUAGCAAUAUUACGGGGC | -3.84 ± 0.39 | -2.68 ± 0.27
UAGUAGCAAUAUUACGGGGG | -4.33 ± 0.46 | -2.8 ± 0.36
UAGUAGCAAUAUUACGGUAU | -2.55 ± 0.24 | -2.39 ± 0.35
UAGUAGCAAUAUUACGGUCU | -1.79 ± 0.17 | -0.706 ± 0.13
UAGUAGCAAUAUUACGGUUA | -0.28 ± 0.077 | 0.03 ± 0.091
UAGUAGCAAUAUUACGUAUU | -4.59 ± 0.36 | -1.96 ± 0.2
UAGUAGCAAUAUUACGUCAG | – | -0.99 ± 0.22
UAGUAGCAAUAUUACGUCGA | -1.6 ± 0.17 | -1.24 ± 0.16
UAGUAGCAAUAUUACGUGAA | -3.8 ± 0.35 | -1.07 ± 0.18
